Where a chain is given by its changes, count along the chain named. Each block holds one binder with its values, some of them ahead of it.
Molecular target: T1, recombinant BACE1 (BACE1 extracellular domain, R&D Systems Cat#931-AS) (UniProt P56817 22-457)
T1 construct: extracellular domain; also called BACE1 extracellular domain protein
Assay: SPR Biacore 8K, antibody captured, BACE1 analyte
Experimental: The binding affinities of the affinity matured humanized 2H8 variants for BACE1 were determined by surface plasmon resonance using a Biacore™ 8K instrument. […] The binding was monitored for 300 seconds and then dissociation was monitored for 600+ seconds in HBS-EP+ running buffer (GE Healthcare Life Sciences, BR100669). Binding response was corrected by subtracting the RU from a blank flow cell. A 1:1 Langmuir model of simultaneous fitting of kₒₙ and koff was used for kinetics analysis.

T1 sequence (P56817 22-457): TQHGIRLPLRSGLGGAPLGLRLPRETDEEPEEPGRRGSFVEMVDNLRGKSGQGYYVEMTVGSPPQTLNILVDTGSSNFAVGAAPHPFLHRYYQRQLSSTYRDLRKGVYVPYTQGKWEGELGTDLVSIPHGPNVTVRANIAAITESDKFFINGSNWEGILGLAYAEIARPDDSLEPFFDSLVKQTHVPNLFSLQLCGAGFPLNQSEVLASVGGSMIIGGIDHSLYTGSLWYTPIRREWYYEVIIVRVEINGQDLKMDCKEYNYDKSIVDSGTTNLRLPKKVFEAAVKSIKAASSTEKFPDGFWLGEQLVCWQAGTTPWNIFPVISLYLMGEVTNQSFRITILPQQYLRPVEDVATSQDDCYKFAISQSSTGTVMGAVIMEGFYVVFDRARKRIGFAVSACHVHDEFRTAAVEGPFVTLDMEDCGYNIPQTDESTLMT

Kd: 7 nM
B2: hu2H8v29.23 (antibody, V domains shown)
VH: QVQLVQSGAEVKKPGASVKVSCKASGYTFTNFWIHWVRQAPGQGLEWMGMIDPSDSYTKYNQKFKARATLTVDTSTSTVYMELSSLRSEDTAVYYCARSGVSLPYWGQGTLVTVSS
VL: DIQMTQSPSSLSASVGDRVTITCKASQDVGRNVAWYQQKPGKSPKSLIYSASHRYSGVPSRFSGSGSGTDFTLTISSLQPEDFATYFCQQYNSYPYTFGQGTKVEIK
notes: captured via human Fc; also called hu2H8_LC5 + hu2H8_HC6.12

Kd: 6.08 nM
B3: hu2H8v29.25 (antibody, V domains shown)
VH: B2 VH with V101A, S102A
VL: B2 VL
notes: captured via human Fc; also called hu2H8_LC5 + hu2H8_HC6.14

Kd: 8.52 nM
B4: hu2H8v29.26 (antibody, V domains shown)
VH: B2 VH with V101G, S102A
VL: B2 VL
notes: captured via human Fc; also called hu2H8_LC5 + hu2H8_HC6.15

Kd: 5.73 nM
B6: hu2H8v29.24 (antibody, V domains shown)
VH: B2 VH with V101A
VL: B2 VL
notes: captured via human Fc; also called hu2H8_LC5 + hu2H8_HC6.13

Kd: 9.32 nM
B7: hu2H8v29.14 (antibody, V domains shown)
VH: B2 VH with T30N, N31S, F32Y, S102A, L103F
VL: B2 VL
notes: captured via human Fc; also called hu2H8_LC5 + hu2H8_HC6.3

Kd: 6 nM
B9: hu2H8v29.22 (antibody, V domains shown)
VH: B2 VH with S102A, Y105S
VL: B2 VL
notes: captured via human Fc; also called hu2H8_LC5 + hu2H8_HC6.11

Kd: 10.3 nM
B13: hu2H8v29.18 (antibody, V domains shown)
VH: B2 VH with D55E, S102A, L103F
VL: B2 VL
notes: captured via human Fc; also called hu2H8_LC5 + hu2H8_HC6.7

Further lines, the binder ahead of its results:

B1: hu2H8v29.13 (antibody, V domains shown)
VH: B2 VH with F32Y, S102A, L103F
VL: B2 VL
notes: captured via human Fc; also called hu2H8_LC5 + hu2H8_HC6.2
Kd: 9.16 nM

B5: hu2H8v29.17 (antibody, V domains shown)
VH: B2 VH with D55S, S102A, L103F
VL: B2 VL
notes: captured via human Fc; also called hu2H8_LC5 + hu2H8_HC6.6
Kd: 8.04 nM

B8: hu2H8v29.20 (antibody, V domains shown)
VH: B2 VH with S56A, S102A, L103F
VL: B2 VL
notes: captured via human Fc; also called hu2H8_LC5 + hu2H8_HC6.9
Kd: 8.69 nM

B10: hu2H8v29.28 (antibody, V domains shown)
VH: B2 VH with S54D, D55S, V101A
VL: B2 VL with R54Y, N92Y
notes: captured via human Fc; also called hu2H8_LC5.12 + hu2H8_HC6.17
Kd: 4.8 nM

B11: hu2H8v29.19 (antibody, V domains shown)
VH: B2 VH with D55G, S102A, L103F
VL: B2 VL
notes: captured via human Fc; also called hu2H8_LC5 + hu2H8_HC6.8
Kd: 9.95 nM

B12: hu2H8v29.15 (antibody, V domains shown)
VH: B2 VH with W33Y, S102A, L103F
VL: B2 VL
notes: captured via human Fc; also called hu2H8_LC5 + hu2H8_HC6.4
Kd: 19.2 nM

B14: hu2H8v29.21 (antibody, V domains shown)
VH: B2 VH with S102A
VL: B2 VL
notes: captured via human Fc; also called hu2H8_LC5 + hu2H8_HC6.10
Kd: 6.68 nM

B15: hu2H8v29.16 (antibody, V domains shown)
VH: B2 VH with M50I, S102A, L103F
VL: B2 VL
notes: captured via human Fc; also called hu2H8_LC5 + hu2H8_HC6.5
Kd: 31.3 nM

B16: hu2H8v29.27 (antibody, V domains shown)
VH: B2 VH with D55S, V101A
VL: B2 VL with R54Y, N92Y
notes: captured via human Fc; also called hu2H8_LC5.12 + hu2H8_HC6.16
Kd: 3.4 nM

Source: patent publication US20210070881A1 (DENALI THERAPEUTICS, published 2021)
